Where a chain is given by its changes, count along the chain named. One block for each binder: values may come before it.
Columns and labels:
[1] = molecular target: proteins of the protein panel profiling (3P), 25 in total; experiment: protein panel profiling (3P), ECL
[2] = molecular target: T1, human TREM2 (hTREM2), expressed on cells (human, UniProt Q9NZC2 19-230); experiment: FACS, hM2A macrophages
T1 construct: Signal peptide 1-18 as stated left out; On CHO cells co-expressed with hDAP12; on hM2A macrophages endogenous; also called WT-TREM2; CHO-hDAP12-hTREM2
T1 sequence: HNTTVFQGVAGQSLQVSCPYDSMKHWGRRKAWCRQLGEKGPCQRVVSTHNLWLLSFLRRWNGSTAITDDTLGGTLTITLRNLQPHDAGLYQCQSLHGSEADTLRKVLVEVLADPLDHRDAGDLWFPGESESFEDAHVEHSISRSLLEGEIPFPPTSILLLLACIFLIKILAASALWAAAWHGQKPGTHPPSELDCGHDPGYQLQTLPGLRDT
Experimental: (§1) To determine cellular EC₅₀ of antibodies on hM2A, CHO-hTREM2 or CHO-cynoTREM2, cells were treated o/n with 5 μM DPC333 (ADAM10 and 17 inhibitor; Qian, M et al. Drug Metab Dispos, 2007. 35:p. 1916-1925). Macrophages were detached with accutase (Biolegend, 423201) followed by resuspension in FACS buffer (PBS, 2% FBS, 0.5 mM EDTA, pH 8.0) supplemented with 50 μg/ml Fc block (BD, 564220) and incubated for at least 20 min on ice. Next cells were stained for 1 h at 4° C. in the same buffer with a broad concentration range of the different anti-TREM2 antibodies followed by a washing step with PBS (250 g, 4° C., 3 min). […] After a second washing step with PBS (250 g, 4° C., 3 min), cells were fixed with fixation buffer (Biolegend, 420801) for 15 min at RT, washed again and fluorescence was assessed using a BD FACS Canto II (BD, V96300323) or a FacsCalibur flow cytometer. Median fluorescence intensities corresponding to the degree of TREM2 antibody bound to cells were evaluated using FlowJo software (Millipore INC).
(§2) Individual values for each donor are given.

[3] = molecular target: T1, human TREM2 (hTREM2), expressed on cells; experiment: cell-based or functional assay
hTREM2 ECD (19-174)-hFc [4] = molecular target: T2, hTREM2 ECD (19-174)-hFc (human, UniProt Q9NZC2 19-174, biotinylated in the -bio form); experiment: S/BG on recombinant protein
T2 construct: Plain and biotinylated forms are kept as one molecule; also called hTREM2 ECD (19-174)-hFc-bio; hTREM2 Fc
T2 sequence: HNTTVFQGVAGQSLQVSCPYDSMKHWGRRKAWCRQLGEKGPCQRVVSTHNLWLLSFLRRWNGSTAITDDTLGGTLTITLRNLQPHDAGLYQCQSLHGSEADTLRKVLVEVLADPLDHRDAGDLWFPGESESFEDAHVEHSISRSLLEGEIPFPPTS

cyTREM2 ECD (19-174)-hFc = molecular target: T3, cyTREM2 ECD (19-174)-hFc (cynomolgus, UniProt A0A2K5UY34 49-204); experiment: S/BG on recombinant protein
T3 construct: range 19-174; also called cyTREM2-ECD (19-174)-hFc-bio
T3 sequence: T2 sequence with A10E, W60R, L89F, F125V

[5] = molecular target: T4, hTREM2 IgSF-hTREM1 stalk-hFc (human, UniProt Q9NP99 135-205, limits assumed, biotinylated in the -bio form); experiment: S/BG on recombinant protein
T4 construct: domain: stalk region; also called hTREM2 IgSF-T1 stalk-hFc-bio; hTREM2 IgSF-hTREM1 stalk-hFc-bio
T4 sequence: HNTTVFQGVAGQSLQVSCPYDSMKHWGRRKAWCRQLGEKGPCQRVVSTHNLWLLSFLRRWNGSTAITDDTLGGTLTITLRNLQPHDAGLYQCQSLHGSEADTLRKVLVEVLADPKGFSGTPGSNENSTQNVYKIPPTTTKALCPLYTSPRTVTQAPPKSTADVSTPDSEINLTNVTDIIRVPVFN

[6] = molecular target: T1, human TREM2 (hTREM2), expressed on cells; experiment: cell-based or functional assay; remark: listed apart in the source
hTREM2 ECD (19-174) [7] = molecular target: T5, hTREM2 ECD (19-174) (human, UniProt Q9NZC2 19-174); experiment: SET screening
T5 construct: Antigen in solution of the SET experiments; also called human TREM2 (SET antigen)
T5 sequence: T2 sequence
Experimental: Serial dilutions of unlabeled antigen were prepared, starting with a concentration at least 10 times higher than the expected KD. Wells without antigen were used to determine Bmax values; wells containing only assay buffer were used to determine background.
The data was evaluated with XLfit (IDBS) software applying customized fitting models. […] A constant amount of diluted BEL extract (containing borate buffer, EDTA and lysozyme) was equilibrated over night with different concentrations of antigen.

hTREM2 ECD (19-174)-hFc [8] = molecular target: T2, hTREM2 ECD (19-174)-hFc; experiment: SPR, label free kinetics
Experimental: (§3) For a precise assessment of the binding affinities of the antibodies affinity-determination by measuring kinetic rate constants was performed by SPR. In addition a comparison to cynomolgus TREM2 was performed (Table 21).

[9] = molecular target: T6, cyTREM2 ECD (19-174)-APP-Avi (cynomolgus, UniProt A0A2K5UY34 49-204); experiment: SPR, label free kinetics
T6 construct: range 19-174
T6 sequence: T2 sequence with A10E, W60R, L89F, F125V
Experimental: as §3

[10] = molecular target: T1, human TREM2 (hTREM2), expressed on cells; experiment: cell-based or functional assay; remark: listed apart in the source
[11] = molecular target: T1, human TREM2 (hTREM2), expressed on cells; experiment: FACS, hM2A, median of 4 donors
Experimental: as §1, §2

[12] = molecular target: T1, human TREM2 (hTREM2), expressed on cells; experiment: FACS, hM2A, donor 3
Experimental: as §1, §2

[13] = molecular target: T1, human TREM2 (hTREM2), expressed on cells; experiment: FACS, hM2A, donor 1
Experimental: as §1, §2

hTREM2 ECD (19-174) [14] = molecular target: T5, hTREM2 ECD (19-174); experiment: SET
[15] = molecular target: T7, cynomolgus TREM2 (construct not stated) (cynomolgus, UniProt A0A2K5UY34 49-204); experiment: SET
T7 construct: also called cyno TREM2
T7 sequence: T2 sequence with A10E, W60R, L89F, F125V

[16] = molecular target: T1, human TREM2 (hTREM2), expressed on cells; experiment: FACS, CHO-hTREM2 cells
Experimental: as §1

[17] = molecular target: T8, cynomolgus TREM2 expressed on CHO cells (cynomolgus, UniProt A0A2K5UY34 49-260); experiment: FACS, CHO-cyTREM2 cells
T8 construct: whole, on cells; also called CHO-cyTREM2; CHO-cynoTREM2
T8 sequence: T1 sequence with A10E, W60R, L89F, F125V, I157V, L193P, Y201H
Experimental: as §1

[18] = molecular target: T1, human TREM2 (hTREM2), expressed on cells; experiment: FACS, hM2A, donor 4
Experimental: as §1, §2

[19] = molecular target: T1, human TREM2 (hTREM2), expressed on cells; experiment: FACS, hM2A, donor 2
Experimental: as §1, §2

hTREM2 ECD (19-174)-hFc [20] = molecular target: T2, hTREM2 ECD (19-174)-hFc; experiment: direct ELISA
Experimental: Antigens were immobilized on microtiter plates (see Table 8). Plates were blocked and incubated with antibodies such as Fab containing crude E. coli lysates or purified Fab or IgG samples. Bound antibodies were detected using respective alkaline-phosphatase (AP) coupled secondary antibodies in combination with ‘AttoPhos’ fluorescence substrate. Multiple washing steps were performed between individual assay steps.

[21] = molecular target: T1, human TREM2 (hTREM2), expressed on cells; experiment: FACS, CHO-DAP12-hTREM2 cells
[22] = molecular target: T6, cyTREM2 ECD (19-174)-APP-Avi; experiment: SPR Biacore
hTREM2 ECD (19-174)-His = molecular target: T9, hTREM2 ECD (19-174)-His (human, UniProt Q9NZC2 19-174); experiment: SPR Biacore
T9 sequence: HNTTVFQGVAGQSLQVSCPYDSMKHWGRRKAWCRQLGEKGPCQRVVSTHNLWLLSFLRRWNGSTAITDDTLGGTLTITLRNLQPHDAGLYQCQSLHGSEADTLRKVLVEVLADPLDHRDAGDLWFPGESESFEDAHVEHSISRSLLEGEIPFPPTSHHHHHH

mTREM2 ECD (19-168)-His = molecular target: T10, mTREM2 ECD (19-168)-His (mouse, UniProt Q99NH8 19-168); experiment: SPR Biacore
T10 construct: range 19-168
T10 sequence (looked up): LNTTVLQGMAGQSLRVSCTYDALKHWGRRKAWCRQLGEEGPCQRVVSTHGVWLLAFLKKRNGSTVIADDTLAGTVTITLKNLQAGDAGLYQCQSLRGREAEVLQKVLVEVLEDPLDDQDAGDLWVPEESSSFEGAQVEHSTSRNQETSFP

[23] = molecular target: T1, human TREM2 (hTREM2), expressed on cells; experiment: FACS, hM2A macrophages; remark: listed apart in the source
[24] = molecular target: T1, human TREM2 (hTREM2), expressed on cells; experiment: FACS, CHO-hDAP12-hTREM2 cells
[25] = molecular target: T1, human TREM2 (hTREM2), expressed on cells; experiment: cell-based or functional assay; remark: listed apart in the source

EC50 (hTREM2 ECD (19-174)-hFc [20]): 2.4 nM | EC50 [21]: 3.4 nM | Kd [22]: 6.6 nM | Kd (hTREM2 ECD (19-174)-His): 12 nM | Kd (mTREM2 ECD (19-168)-His): 0.9 nM | EC50 [23]: 37 nM | EC50 [24]: 3.4 nM
B2: MOR042596 (full IgG) (antibody, V domains shown)
VH: QVQLVQSGAEVKKPGASVKVSCKASGYTFTGYHMSWVRQAPGQGLEWMGVINPVSGNTVYAQKFQGRVTMTRDTSISTAYMELSRLRSEDTAVYYCARIPSYTYAFDYWGQGTLVTVSS
VL: DIQMTQSPSSLSASVGDRVTITCRASQDISNYLAWYQQKPGKAPKLLIYRASSLQSGVPSRFSGSGSGTDFTLTISSLQPEDFATYYCQQHGHSPTTFGQGTKVEIKR
notes: Parental antibody of MOR044698; VH1B k1

Cumulative binding ratio [1]: < 150 | EC50 [2]: < 2 nM | TREM2 activation (fold in RGA) [3]: 1.3 fold | S/BG (hTREM2 ECD (19-174)-hFc [4]): > 5 | S/BG (cyTREM2 ECD (19-174)-hFc): > 5 | S/BG [5]: > 20 | Internalization compared to parental after 6 h [6]: 0.7 fold of parental | Internalization; fold over background after 6 h [6]: 33.3 fold | Kd (hTREM2 ECD (19-174) [7]): < 0.6 nM | Kd (hTREM2 ECD (19-174)-hFc [8]): 0.003 nM | Kd [9]: 0.004 nM | Fold TREM2 cell surface increase compared to isotype (hM2A, 100 nM o/n) [10]: 5.1 fold | EC50 [11]: 0.59 nM | EC50 [12]: 0.54 nM | EC50 [13]: 0.73 nM | Kd (hTREM2 ECD (19-174) [14]): 0.003 nM | Kd [15]: 0.004 nM | EC50 [16]: 0.16 nM | EC50 [17]: 0.65 nM | EC50 [18]: 0.64 nM | EC50 [19]: 0.54 nM
B4: MOR044746 (antibody, V domains shown)
VH: QVQLQQSGPGLVKPSQTLSLTCAISGDSVSSSSAAWNWIRQSPSRGLEWLGHIGYRSKWYNEYAVSVKSRITINPDTSKNQFSLQLNSVTPEDTAVYYCARGMYGSVPYKEGYYFDIWGQGTLVTVSS
VL: DIQMTQSPSSLSASVGDRVTITCRASQGISSDLNWYQQKPGKAPKLLIYAASNLQSGVPSRFSGSGSGTDFTLTISSLQPEDFATYYCQQYTDESMTFGQGTKVEIK
notes: light chain 63); Human IgG vector of the campaign: IgG1f LALA; Matured from MOR042493; VH6 k1; also called MOR44746

Further lines, the binder ahead of its results:

B1: MOR044698 (antibody, V domains shown)
VH: B2 VH
VL: DIQMTQSPSSLSASVGDRVTITCRASQDISNYLAWYQQKPGKAPKLLIYRASSLQSGVPSRFSGSGSGTDFTLTISSLQPEDFATYYCFQYRHMPSQTFGQGTKVEIK
notes: light chain 26); Human IgG vector of the campaign: IgG1f LALA; Matured from MOR042596; VH1B k1; also called MOR44698
Cumulative binding ratio [1]: < 150 | EC50 [2]: < 2 nM | TREM2 activation (fold in RGA) [3]: 1 fold | S/BG (hTREM2 ECD (19-174)-hFc [4]): > 5 | S/BG (cyTREM2 ECD (19-174)-hFc): > 5 | S/BG [5]: > 20 | Internalization compared to parental after 6 h [6]: 1.5 fold of parental | Internalization; fold over background after 6 h [6]: 57.1 fold | Kd (hTREM2 ECD (19-174) [7]): < 0.6 nM | Kd (hTREM2 ECD (19-174)-hFc [8]): 0.046 nM | Kd [9]: 0.039 nM | Fold TREM2 cell surface increase compared to isotype (hM2A, 100 nM o/n) [10]: 7.9 fold | EC50 [11]: 0.56 nM | EC50 [12]: 0.55 nM | EC50 [13]: 0.86 nM | Kd (hTREM2 ECD (19-174) [14]): 0.046 nM | Kd [15]: 0.039 nM | EC50 [16]: 0.2 nM | EC50 [17]: 0.46 nM | EC50 [18]: 0.56 nM | EC50 [19]: 0.55 nM

B3: MOR041877 (full IgG) (antibody, V domains shown)
VH: QVQLKESGPALVKPTQTLTLTCTFSGFSLSTSGVGVSWIRQPPGKALEWLALIFSDHDKIYSTSLKTRLTISKDTSKNQVVLTMTNMDPVDTATYYCARTLIDRSVYFDYWGQGTLVTVSS
VL: DIVLTQPPSVSGAPGQRVTISCSGSSSNIGHHYVSWYQQLPGTAPKLLIYDNTNRPSGVPDRFSGSKSGTSASLAITGLQAEDEADYYCATWDGLMNSIVFGGGTKLTVLG
RGA in THP-B5 cells (fold increase over BG) [25]: 2.1 fold | EC50 [23]: 0.7 nM | EC50 [24]: 0.5 nM
